B1: Mineralocorticoid receptor (Homo sapiens), P08235 (parent)
chain: METKGYHSLPEGLDMERRWGQVSQAVERSSLGPTERTDENNYMEIVNVSCVSGAIPNNSTQGSSKEKQELLPCLQQDNNRPGILTSDIKTELESKELSATVAESMGLYMDSVRDADYSYEQQNQQGSMSPAKIYQNVEQLVKFYKGNGHRPSTLSCVNTPLRSFMSDSGSSVNGGVMRAVVKSPIMCHEKSPSVCSPLNMTSSVCSPAGINSVSSTTASFGSFPVHSPITQGTPLTCSPNVENRGSRSHSPAHASNVGSPLSSPLSSMKSSISSPPSHCSVKSPVSSPNNVTLRSSVSSPANINNSRCSVSSPSNTNNRSTLSSPAASTVGSICSPVNNAFSYTASGTSAGSSTLRDVVPSPDTQEKGAQEVPFPKTEEVESAISNGVTGQLNIVQYIKPEPDGAFSSSCLGGNSKINSDSSFSVPIKQESTKHSCSGTSFKGNPTVNPFPFMDGSYFSFMDDKDYYSLSGILGPPVPGFDGNCEGSGFPVGIKQEPDDGSYYPEASIPSSAIVGVNSGGQSFHYRIGAQGTISLSRSARDQSFQHLSSFPPVNTLVESWKSHGDLSSRRSDGYPVLEYIPENVSSSTLRSVSTGSSRPSKICLVCGDEASGCHYGVVTCGSCKVFFKRAVEGQHNYLCAGRNDCIIDKIRRKNCPACRLQKCLQAGMNLGARKSKKLGKLKGIHEEQPQQQQPPPPPPPPQSPEEGTTYIAPAKEPSVNTALVPQLSTISRALTPSPVMVLENIEPEIVYAGYDSSKPDTAENLLSTLNRLAGKQMIQVVKWAKVLPGFKNLPLEDQITLIQYSWMCLSSFALSWRSYKHTNSQFLYFAPDLVFNEEKMHQSAMYELCQGMHQISLQFVRLQLTFEEYTIMKVLLLLSTIPKDGLKSQAAFEEMRTNYIKELRKMVTKCPNNSGQSWQRFYQLTKLLDSMHDLVSDLLEFCFYTFRESHALKVEFPAMLVEIISDQLPKVESGNAKPLYFHRK
partner: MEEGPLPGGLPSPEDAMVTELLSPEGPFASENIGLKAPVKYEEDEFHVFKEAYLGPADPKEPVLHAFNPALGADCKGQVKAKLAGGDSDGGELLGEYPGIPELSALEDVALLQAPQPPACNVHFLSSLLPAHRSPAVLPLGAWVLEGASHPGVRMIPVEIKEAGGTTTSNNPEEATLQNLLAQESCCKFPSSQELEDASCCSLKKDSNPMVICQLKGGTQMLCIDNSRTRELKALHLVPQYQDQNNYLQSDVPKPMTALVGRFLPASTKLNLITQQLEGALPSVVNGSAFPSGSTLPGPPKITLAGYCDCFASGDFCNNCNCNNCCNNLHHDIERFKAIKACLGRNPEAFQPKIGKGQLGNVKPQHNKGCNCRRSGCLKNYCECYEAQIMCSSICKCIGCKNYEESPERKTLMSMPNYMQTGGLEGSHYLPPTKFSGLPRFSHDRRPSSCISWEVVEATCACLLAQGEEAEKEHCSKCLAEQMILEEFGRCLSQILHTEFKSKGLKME
B2: Tesmin (Homo sapiens), Q9Y4I5 (parent)
chain: B1 partner
B3: Mineralocorticoid receptor (Homo sapiens), P08235 (parent)
chain: B1 chain
partner: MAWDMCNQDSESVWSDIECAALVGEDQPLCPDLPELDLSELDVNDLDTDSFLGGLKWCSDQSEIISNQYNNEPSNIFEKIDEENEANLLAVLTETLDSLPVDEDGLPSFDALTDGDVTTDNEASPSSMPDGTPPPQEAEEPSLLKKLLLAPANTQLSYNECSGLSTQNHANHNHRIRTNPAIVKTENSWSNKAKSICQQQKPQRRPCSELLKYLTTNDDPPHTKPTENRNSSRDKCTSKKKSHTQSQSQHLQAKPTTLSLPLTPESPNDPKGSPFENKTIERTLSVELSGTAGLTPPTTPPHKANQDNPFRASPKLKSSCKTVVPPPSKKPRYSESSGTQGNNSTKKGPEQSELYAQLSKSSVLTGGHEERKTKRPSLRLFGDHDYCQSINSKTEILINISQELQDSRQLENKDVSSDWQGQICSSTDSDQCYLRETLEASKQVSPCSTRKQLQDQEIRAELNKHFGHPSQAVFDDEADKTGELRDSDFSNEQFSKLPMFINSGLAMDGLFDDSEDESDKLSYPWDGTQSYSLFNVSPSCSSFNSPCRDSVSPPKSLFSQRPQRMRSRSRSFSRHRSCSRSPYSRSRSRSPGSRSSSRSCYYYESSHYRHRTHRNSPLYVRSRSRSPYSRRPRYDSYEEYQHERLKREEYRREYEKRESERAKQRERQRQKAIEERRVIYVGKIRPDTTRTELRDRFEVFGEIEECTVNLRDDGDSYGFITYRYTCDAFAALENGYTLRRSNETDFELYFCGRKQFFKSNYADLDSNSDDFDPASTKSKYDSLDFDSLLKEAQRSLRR

Variants of: B1
Settings: with mtl5_human TESMIN

effect of a mutation on the interaction | Variant
decreasing interaction strength | E962A

Variants of: B2
Settings: with mcr_human NR3C2, P08235

effect of a mutation on the interaction | Variant
with no effect | L180A;L181A
disrupting interaction strength | L128A;L129A;L180A;L181A
with no effect | L128A;L129A

Variants of: B3
Settings: with prgc1_human PPARGC1A

effect of a mutation on the interaction | Variant
disrupting interaction strength | E962A

Variants of: B3
Settings: with prgc1_human PPARGC1A
Remark: another data set of the same source

effect of a mutation on the interaction | Variant
decreasing interaction strength | E962A

From IntAct's records for PubMed 24907116
